The experiment has as its target T1, MDM2 (Homo sapiens, UniProt Q00987).
T1 construct: made in house
Briefly: Naive Library Presenter Screening (phage, NGS), MDM2. The class given is binding. Conditions: for interaction data, BLANK: Blank = Media only.

The mark [1] stands for this setting: MDM2 clusters (C82, C85), first column.
Setting [2] is: MDM2 clusters (C82, C85), second column.
The mark [3] stands for this setting: MDM2 clusters (C82, C85), target concentration 10 nM.
The mark [4] stands for this setting: MDM2 clusters (C82, C85), target concentration 30 nM.
Setting [5] is: MDM2 clusters (C82, C85), target concentration 100 nM.
The mark [6] stands for this setting: MDM2 clusters (C82, C85), target concentration 300 nM.
The mark [7] stands for this setting: MDM2 clusters (C82, C85), target concentration 1000 nM, first column.
[8] abbreviates: MDM2 clusters (C82, C85), target concentration 1000 nM, second column.
The mark [9] stands for this setting: MDM2 target concentration 10 nM.
Where [10] appears, read: MDM2 target concentration 30 nM.
Where [11] appears, read: MDM2 target concentration 100 nM.
The mark [12] stands for this setting: MDM2 target concentration 300 nM.
Setting [13] is: MDM2 target concentration 1000 nM, first column.
The mark [14] stands for this setting: MDM2 target concentration 1000 nM, second column.

Numbered stars: 1 amine (or outer) side, 2 acyl side, 3 side chain; on linkers, the order of the positions; unused ones are H or OH. Bridge positions count the residues as written; N and C are the ends. Ends that are not written are not given here. Phenylene(1,4-NHCOCH2)2 = O=C(C[*:1])Nc1ccc(NC(=O)C[*:2])cc1

T1 sequence (Q00987 25-109): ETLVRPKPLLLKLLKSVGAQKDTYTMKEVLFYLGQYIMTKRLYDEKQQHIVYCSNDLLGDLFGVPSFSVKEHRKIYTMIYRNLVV

With “DPAETDCSQAAFWCYWQ (linker 7-14 via Phenylene(1,4-NHCOCH2)2 (inferred))”, the “interaction data, BLANK” value runs as follows: under setting [1], 0; under setting [2], 0. Under setting [3], the “interaction data at Target Concentration 10” value is on record as 1. In addition, under setting [4], the “interaction data at Target Concentration 30” value turned out to be 15. Further, the “interaction data at Target Concentration 100” value under setting [5] is reported as 170. Further, the “interaction data at Target Concentration 300” value under setting [6] is given as 133. Further, the “interaction data at Target Concentration 1000” value reads like this: under setting [7], 176; under setting [8], 188.

Regarding “DPAYTQCSDAAFMCWWW (linker 7-14 via Phenylene(1,4-NHCOCH2)2 (inferred))”, the “interaction data, BLANK” value under setting [1] came out at 0 and the “interaction data, BLANK” value under setting [2] stood at 0. The “interaction data at Target Concentration 10” value under setting [3] came to 0. Further, the “interaction data at Target Concentration 30” value under setting [4] was found to be 19. In addition, the “interaction data at Target Concentration 100” value under setting [5] is 32. The “interaction data at Target Concentration 300” value under setting [6] is recorded as 48. Further, the “interaction data at Target Concentration 1000” value under setting [7] is 65 and the “interaction data at Target Concentration 1000” value under setting [8] is 62.

As for “DPAQEDCHAAAFWCIWD (DPAQEDCHAAAFWCIWD-NH2; linker 7-14 via Phenylene(1,4-NHCOCH2)2 (inferred))”, the “interaction data, BLANK” value was determined as 0 under setting [1] and 0 under setting [2]. Besides, the “interaction data at Target Concentration 10” value under setting [3] is recorded as 0. In addition, the “interaction data at Target Concentration 30” value under setting [4] was 0. Also, the “interaction data at Target Concentration 100” value under setting [5] amounted to 15. Besides, the “interaction data at Target Concentration 300” value under setting [6] amounted to 37. Besides, the “interaction data at Target Concentration 1000” value under setting [7] was 23 and the “interaction data at Target Concentration 1000” value under setting [8] was determined as 48.

For “DPANHACFQAAWDCQFF (linker 7-14 via Phenylene(1,4-NHCOCH2)2 (inferred))”, the “interaction data at Target Concentration 10” value under setting [9] was determined as 11. For the same sequence, the “interaction data at Target Concentration 30” value under setting [10] turned out to be 154. For the same sequence, the “interaction data at Target Concentration 100” value under setting [11] is 643. Besides, under setting [12], the “interaction data at Target Concentration 300” value worked out at 1045. Further, the “interaction data at Target Concentration 1000” value reads like this: under setting [13], 776; under setting [14], 1088.

On to “DPAENECFTAAWDCMFF (linker 7-14 via Phenylene(1,4-NHCOCH2)2 (inferred))”, for which the “interaction data at Target Concentration 10” value under setting [9] is on record as 0. Besides, the “interaction data at Target Concentration 30” value under setting [10] is 0. Besides, the “interaction data at Target Concentration 100” value under setting [11] stood at 7. Further, the “interaction data at Target Concentration 300” value under setting [12] is 51. For the same sequence, the “interaction data at Target Concentration 1000” value stood at 70 under setting [13] and 40 under setting [14].

“DPARLRCQDAAFACMWY (DPARLRCQDAAFACMWY-NH2; linker 7-14 via Phenylene(1,4-NHCOCH2)2 (inferred))”: the “interaction data, BLANK” value is recorded as 0 under setting [1] and 0 under setting [2]. Besides, the “interaction data at Target Concentration 10” value under setting [3] stood at 0. Also, the “interaction data at Target Concentration 30” value under setting [4] was determined as 0. The “interaction data at Target Concentration 100” value under setting [5] was determined as 17. Under setting [6], the “interaction data at Target Concentration 300” value worked out at 31. For the same sequence, the “interaction data at Target Concentration 1000” value came out at 32 under setting [7] and 37 under setting [8].

Take “DPAFDSCFSAAWDCMYW (linker 7-14 via Phenylene(1,4-NHCOCH2)2 (inferred))”: the “interaction data at Target Concentration 10” value under setting [9] turned out to be 3. For the same sequence, the “interaction data at Target Concentration 30” value under setting [10] was 0. Further, the “interaction data at Target Concentration 100” value under setting [11] was 27. Under setting [12], the “interaction data at Target Concentration 300” value is listed as 92. Further, the “interaction data at Target Concentration 1000” value came to 65 under setting [13] and 84 under setting [14].

On to “DPATQQCFQAAWDCQFM (linker 7-14 via Phenylene(1,4-NHCOCH2)2 (inferred))”, for which, under setting [9], the “interaction data at Target Concentration 10” value is on record as 1. The “interaction data at Target Concentration 30” value under setting [10] amounted to 60. Besides, the “interaction data at Target Concentration 100” value under setting [11] came out at 324. For the same sequence, under setting [12], the “interaction data at Target Concentration 300” value was determined as 683. Further, the “interaction data at Target Concentration 1000” value under setting [14] is 679.

Take “DPASQDCFSAAWQCLQT (DPASQDCFSAAWQCLQT-NH2; linker 7-14 via Phenylene(1,4-NHCOCH2)2 (inferred))”: the “interaction data, BLANK” value under setting [1] came out at 0 and the “interaction data, BLANK” value under setting [2] amounted to 0. In addition, the “interaction data at Target Concentration 10” value under setting [3] was 0. Further, the “interaction data at Target Concentration 30” value under setting [4] stood at 31. Also, under setting [5], the “interaction data at Target Concentration 100” value was 138. For the same sequence, the “interaction data at Target Concentration 300” value under setting [6] was determined as 165. Also, the “interaction data at Target Concentration 1000” value reads like this: under setting [7], 94; under setting [8], 231.

Take “DPAYSDCFQAAWTCMIH (linker 7-14 via Phenylene(1,4-NHCOCH2)2 (inferred))”: the “interaction data, BLANK” value reads like this: under setting [1], 0; under setting [2], 0. Under setting [3], the “interaction data at Target Concentration 10” value is listed as 0. In addition, the “interaction data at Target Concentration 30” value under setting [4] came out at 78. Also, the “interaction data at Target Concentration 100” value under setting [5] is 135. Further, under setting [6], the “interaction data at Target Concentration 300” value came to 155. The “interaction data at Target Concentration 1000” value was found to be 110 under setting [7] and 150 under setting [8].

Turning to “DPADIVCQDAAFQCFWW (linker 7-14 via Phenylene(1,4-NHCOCH2)2 (inferred))”, the “interaction data, BLANK” value is 0 under setting [1] and 0 under setting [2]. Moreover, the “interaction data at Target Concentration 10” value under setting [3] amounted to 0. Under setting [4], the “interaction data at Target Concentration 30” value worked out at 1. The “interaction data at Target Concentration 100” value under setting [5] came to 12. The “interaction data at Target Concentration 300” value under setting [6] is recorded as 33. Also, the “interaction data at Target Concentration 1000” value under setting [7] was found to be 46 and the “interaction data at Target Concentration 1000” value under setting [8] is given as 18.

With “DPAAQECFRAAWRCMQD (linker 7-14 via Phenylene(1,4-NHCOCH2)2 (inferred))”, the “interaction data, BLANK” value under setting [1] stood at 0 and the “interaction data, BLANK” value under setting [2] is on record as 0. Under setting [3], the “interaction data at Target Concentration 10” value was 0. Under setting [4], the “interaction data at Target Concentration 30” value worked out at 0. Besides, the “interaction data at Target Concentration 100” value under setting [5] was 25. Also, the “interaction data at Target Concentration 300” value under setting [6] stood at 37. Further, the “interaction data at Target Concentration 1000” value is, setting by setting: under setting [7], 34; under setting [8], 29.

In the case of “DPAHQQCFMAAWRCVVH (linker 7-14 via Phenylene(1,4-NHCOCH2)2 (inferred))”, the “interaction data, BLANK” value runs as follows: under setting [1], 0; under setting [2], 0. Besides, the “interaction data at Target Concentration 10” value under setting [3] is reported as 1. The “interaction data at Target Concentration 30” value under setting [4] is listed as 48. Moreover, the “interaction data at Target Concentration 100” value under setting [5] stood at 230. In addition, under setting [6], the “interaction data at Target Concentration 300” value came out at 375. In addition, the “interaction data at Target Concentration 1000” value under setting [7] is given as 356 and the “interaction data at Target Concentration 1000” value under setting [8] amounted to 327.

For the sequence “DPALFSCDSAAFSCYWY (linker 7-14 via Phenylene(1,4-NHCOCH2)2 (inferred); not fully specified (C-terminus))”, the “interaction data, BLANK” value is, setting by setting: under setting [1], 0; under setting [2], 0. Under setting [3], the “interaction data at Target Concentration 10” value is 0. The “interaction data at Target Concentration 30” value under setting [4] was found to be 0. Further, under setting [5], the “interaction data at Target Concentration 100” value turned out to be 25. The “interaction data at Target Concentration 300” value under setting [6] is given as 17. Further, the “interaction data at Target Concentration 1000” value worked out at 25 under setting [7] and 57 under setting [8].

“DPAVTECFQAAWRCMVM (linker 7-14 via Phenylene(1,4-NHCOCH2)2 (inferred); not fully specified (C-terminus))”: the “interaction data, BLANK” value runs as follows: under setting [1], 0; under setting [2], 0. Further, the “interaction data at Target Concentration 10” value under setting [3] is given as 0. Further, the “interaction data at Target Concentration 30” value under setting [4] came out at 77. Further, the “interaction data at Target Concentration 100” value under setting [5] came to 184. Also, the “interaction data at Target Concentration 300” value under setting [6] amounted to 276. The “interaction data at Target Concentration 1000” value reads like this: under setting [7], 269; under setting [8], 268.

As for “DPAAVQCNTAAFQCYWF (linker 7-14 via Phenylene(1,4-NHCOCH2)2 (inferred))”, the “interaction data, BLANK” value is given as 0 under setting [1] and 0 under setting [2]. Moreover, the “interaction data at Target Concentration 10” value under setting [3] was found to be 0. The “interaction data at Target Concentration 30” value under setting [4] is given as 0. Also, under setting [5], the “interaction data at Target Concentration 100” value is reported as 23. For the same sequence, the “interaction data at Target Concentration 300” value under setting [6] worked out at 56. The “interaction data at Target Concentration 1000” value amounted to 53 under setting [7] and 69 under setting [8].

With “DPADRDCFSAAWACVIR (linker 7-14 via Phenylene(1,4-NHCOCH2)2 (inferred))”, the “interaction data, BLANK” value by setting is: under setting [1], 0; under setting [2], 0. The “interaction data at Target Concentration 10” value under setting [3] is recorded as 0. Also, the “interaction data at Target Concentration 30” value under setting [4] is on record as 37. Moreover, the “interaction data at Target Concentration 100” value under setting [5] amounted to 188. Moreover, the “interaction data at Target Concentration 300” value under setting [6] turned out to be 209. For the same sequence, the “interaction data at Target Concentration 1000” value under setting [7] stood at 160 and the “interaction data at Target Concentration 1000” value under setting [8] is 215.

Take “DPAHNLCFDAAWWCHWQ (linker 7-14 via Phenylene(1,4-NHCOCH2)2 (inferred))”: the “interaction data, BLANK” value is, setting by setting: under setting [1], 0; under setting [2], 0. Further, under setting [3], the “interaction data at Target Concentration 10” value stood at 0. In addition, the “interaction data at Target Concentration 30” value under setting [4] is 0. Besides, the “interaction data at Target Concentration 100” value under setting [5] was 9. Besides, under setting [6], the “interaction data at Target Concentration 300” value is listed as 7. For the same sequence, the “interaction data at Target Concentration 1000” value is 8 under setting [7] and 11 under setting [8].

Source of the values: patent US20240376151A1, “STAPLED PEPTIDES AND METHODS THEREOF” (FOG PHARMACEUTICALS, INC., priority 2022, published 2024).
